± gives the standard deviation.
Assay: protein stability index of a GFP-peptide fusion (GPS, HEK-293T) (PSI 1-6); higher = more stable
Details: c terminus: a fixed tail appended
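Note: 24-mer peptide tiles fused after GFP, lentivirally expressed, FACS-sorted into six equal bins by GFP/DsRed ratio, decoded by Illumina sequencing, PSI is the read-weighted mean bin number.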

| Sequence | protein stability index (treatment: DMSO) | protein stability index (treatment: MLN4924 1 uM, 8 h) |
| --- | --- | --- |
| EIIELLILSGARVNAKDNMWLTPL [ANKRD44] | 3.16 ± 0.2 | 3.3 ± 0.72 |
| VFDAMFNGGMATTSAEIELPDVEP [BTBD1] | 4.68 ± 0.28 | 4.77 ± 0.24 |
| LSVIQMVAFLEQRASALLASCSKN [FBXO34] | 2.81 ± 0.35 | 2.71 ± 0.71 |
| TMGMGMPNIAMTSGTVQPKQDAFA [CLINT1] | 3.9 ± 0.17 | 3.98 ± 0.21 |
| YNQQQALIDQRYFQVLCSINSIIH [CEP70] | 2.32 ± 0.34 | 2.24 ± 0.23 |
| AWKHGNIHLSAPCIYSEVMEALDL [PCMTD2] | 2.71 ± 0.26 | 2.73 ± 0.27 |
| TPVSNSLLPEKAFSDIPSPYLRGT [GFOD1] | 4.03 ± 0.28 | 3.98 ± 0.1 |
| KLPLPIALRSHLKSFSMANGLNAR [RAB40B] | 2.41 ± 0.23 | 2.46 ± 0.19 |
| TGYPYRYPALREKSKKYSDVEVPA [ADD1] | 3.67 ± 0.081 | 3.66 ± 0.044 |
| NDKFSFHEVKDNYIPVIKRALNSV [RHOBTB3] | 2.19 ± 0.49 | 2.41 ± 0.24 |
| SILRELDTSMDGTEPPQNPVTPLG [SERTAD3] | 4.35 ± 0.13 | 4.38 ± 0.18 |
| MNVDFDAPLGYKEPERQVQHEEST [UFD1] | 5.28 ± 0.062 | 5.31 ± 0.29 |
| LTRRLAHGEELRVSARSREGRGGR [HAGHL] | 4.87 ± 0.22 | 4.99 ± 0.079 |
| LLECYIQYHHSKIRNRGYNLIYRS [TMEM192] | 2.71 ± 0.5 | 2.73 ± 0.6 |
| YHNSPAYLAYINAKSRAEAALEEE [SMARCE1] | 2.53 ± 0.54 | 4.01 ± 0.38 |
| IFIIQACRGNQHDVPVIPLDVVDN [CASP6] | 2.71 ± 0.59 | 2.49 ± 0.7 |
| YLYYDPDYSFLSLGVYSALREIAF [ATE1] | 2.92 ± 0.2 | 2.67 ± 0.24 |
| DSVAEVAAKARDTGILIFAIGVGQ [MATN2] | 2.73 ± 0.9 | 2.64 ± 0.97 |
| VRAKGSQSGRHLQTHSNTIVVSLQ [STX5] | 2.48 ± 0.24 | 2.64 ± 0.075 |
| LPSSGEGLAFFTFPNIASATKFKQ [HMOX1] | 2.75 ± 0.43 | 2.87 ± 0.18 |
| PDKECRRCMQCDAKFDFLTRKHHC [ZFYVE21] | 3.91 ± 0.078 | 4 ± 0.27 |
| PTIDTGYDSQPQDVLGIRQLERPL [TRAF3IP2] | 4.2 ± 0.28 | 4.4 ± 0.37 |

| Sequence | protein stability index (treatment: DMSO) | protein stability index (treatment: MLN4924 1 uM, 8 h) |
| --- | --- | --- |
| IRSFGHFIARLQGSILQFNPEVGI [SMG5] | 2.45 ± 0.27 | 2.35 ± 0.25 |
| TSSSLGDKSEYLEMEEGVKESLCA [KCNA4] | 5.1 ± 0.14 | 4.77 ± 0.41 |
| KPPYSYATLICMAMQASKATKITL [FOXJ1] | 2.78 ± 0.57 | 2.8 ± 0.53 |
| RCLHMDQLQDFNIPQAGGWGPWGP [ADAMTS4] | 2.24 ± 0.35 | 2.24 ± 0.75 |
| LLARLRELEQQIWKERDEYITKVS [TRIM15] | 1.98 ± 0.36 | 1.96 ± 0.56 |
| SSTSGGSGYGFRPSMVSGGYVANS [KRT71] | 3.29 ± 0.31 | 3.46 ± 0.49 |
| LNDISRKSEGLSGRVLRKLPFLAH [TRIP13] | 2.11 ± 0.27 | 2.57 ± 0.55 |
| CSSFMAPPVTDLGELRRRPGDMKT [CPOX] | 3.43 ± 0.3 | 3.31 ± 0.48 |
| LSQPTTNLVAGCLQLNARSFMMGQ [NEUROD6] | 2.31 ± 0.17 | 2.21 ± 0.26 |
| SVKLRALRSPRKFGVAGRSCQEVL [DFFB] | 2.73 ± 0.34 | 3.01 ± 0.54 |
| SKSLCHDEIENLLDSDHRELIGDY [CDC25B] | 4.13 ± 0.26 | 4.31 ± 0.27 |
| DSLDEARSSGSEGTPADTGDLSPG [PWWP2B] | 5.6 ± 0.18 | 5.52 ± 0.15 |
| QAFQLPKLGALLSRCRKLVEYFQQ [ZBED1] | 2.52 ± 0.5 | 2.43 ± 0.29 |
| RTADEATNTGPAGSSASTSPAPLD [DYRK1B] | 5.5 ± 0.28 | 5.34 ± 0.21 |
| SAEELRKARSNSTLSKSEYMVIEE [KCNA3] | 4.87 ± 0.17 | 4.93 ± 0.16 |
| FSLVLVLDLSKPNDLWPTMENLLQ [DYNC2LI1] | 2.67 ± 0.51 | 2.72 ± 0.41 |
| RKISVNAKDEDQWTALHFAAQNGD [RIPK4] | 4.19 ± 0.26 | 4.59 ± 0.53 |
| GAGHCSASPGPAAPTARMPGRLRG | 4.82 ± 0.34 | 4.78 ± 0.25 |
| LYRTLFSVINNGHNQKVHMHMVDL [PDS5B] | 2.73 ± 0.56 | 2.77 ± 0.77 |
| REAGFHQYEVSNFARNGALSTHNW [RSAD1] | 2.97 ± 0.28 | 3.08 ± 0.2 |
| ATFLVTFGNSEKPETMTCRLSNNQ [ZFYVE21] | 2.39 ± 0.15 | 2.24 ± 0.19 |
| VLSEGSPLTEQEESSPSHDRSRTV [SRPK2] | 5.35 ± 0.33 | 5.32 ± 0.25 |

| Sequence | protein stability index (treatment: DMSO) | protein stability index (treatment: MLN4924 1 uM, 8 h) |
| --- | --- | --- |
| HKSAFNDWFSGHLNFQIEHHLFPT [FADS1] | 2.11 ± 0.18 | 2.07 ± 0.41 |
| KEDLIIPHHHSFYDFIVTKARGKS [FAM50A] | 3.4 ± 0.095 | 3.73 ± 0.16 |
| ARQATNLKVNFFFERIMKYERLAR [FBXO39] | 2.75 ± 0.82 | 2.41 ± 0.32 |
| ASTPTPDDKLFQKLAKVYSYAHGW [CPN1] | 2.38 ± 0.14 | 2.33 ± 0.26 |
| GTASSGSSRLPQPSGAGKTVVGVP [ZC2HC1A] | 4.74 ± 0.41 | 4.72 ± 0.12 |
| KNTFEFLKENNFQPYPLPHVRHMA [CLK3] | 2.54 ± 0.26 | 2.51 ± 0.12 |
| VVEKRLCMYEHGEDTHQSPEPEDE [RSPH3] | 5.43 ± 0.43 | 5.58 ± 0.23 |
| EEMRELRRKIRELQLRYSLRILIG [BEX5] | 2.76 ± 0.75 | 2.5 ± 0.51 |
| LYNMDLSDDHIRVIVQLHKLRHLD [ZER1] | 2.25 ± 0.38 | 2.56 ± 0.37 |
| RDSYSSSSRGAPRGGGRGGSRSDR [RBMX] | 5.41 ± 0.24 | 5.44 ± 0.17 |
| GDETAHRIDSQFLIGDTLLVAPVL [MYORG] | 2.94 ± 0.3 | 2.85 ± 0.34 |
| TAIRQLTEPSGRVAKKTPTKRSTL [C2CD2L] | 4.37 ± 0.15 | 4.44 ± 0.084 |
| MLSHDNITWIAGAVTKDFKLTDKH [ACSBG2] | 2.66 ± 0.42 | 2.86 ± 0.3 |
| DSLLLHSSGQCRRRKRTYWNDSCG [WEE1] | 2.75 ± 0.29 | 2.82 ± 0.47 |
| KNEPYLEAACNDVDRWPAPVPGKT [DENND6A] | 4.62 ± 0.23 | 4.67 ± 0.19 |
| RPSMASELMPSSRLWSLSYTKLPS [SLC25A39] | 2.99 ± 0.19 | 2.92 ± 0.26 |
| LPSLSCRTSCSSRPCVPPSCHGYT [KRT33B] | 2.1 ± 0.11 | 2.09 ± 0.36 |
| PRGARCSNGFPERDPPRPGPSRPA [GCH1] | 4.71 ± 0.064 | 4.47 ± 0.38 |
| CETCVGSWSIQMRQHHHQSSFPGS | 2.37 ± 0.3 | 2.34 ± 0.44 |
| LKNEVERLKKQLRAAQLQHSEKMA [CCDC6] | 2.83 ± 0.32 | 3.14 ± 0.25 |
| EPAPGSALSPAGVCGGAQRPGHLP [CDC25B] | 4.6 ± 0.15 | 4.49 ± 0.21 |
